Source: PMC2762204 (Cancer research, 2009)
Substitutions are numbered along the chain they refer to. Blank lines part the entries; values can stand above or below the molecule they belong to.

Key:
[1] = target: FLAG-Sprouty2 co-expressed with active MEK:EE (phosphorylated) (mouse) (UniProt Q9QXV8); assay: pull-down
Myc-B-Raf wild-type = Myc-B-Raf wild-type (UniProt P15056 1-766); assay: co-IP
Myc-B-Raf wild-type, sequence (P15056 whole entry): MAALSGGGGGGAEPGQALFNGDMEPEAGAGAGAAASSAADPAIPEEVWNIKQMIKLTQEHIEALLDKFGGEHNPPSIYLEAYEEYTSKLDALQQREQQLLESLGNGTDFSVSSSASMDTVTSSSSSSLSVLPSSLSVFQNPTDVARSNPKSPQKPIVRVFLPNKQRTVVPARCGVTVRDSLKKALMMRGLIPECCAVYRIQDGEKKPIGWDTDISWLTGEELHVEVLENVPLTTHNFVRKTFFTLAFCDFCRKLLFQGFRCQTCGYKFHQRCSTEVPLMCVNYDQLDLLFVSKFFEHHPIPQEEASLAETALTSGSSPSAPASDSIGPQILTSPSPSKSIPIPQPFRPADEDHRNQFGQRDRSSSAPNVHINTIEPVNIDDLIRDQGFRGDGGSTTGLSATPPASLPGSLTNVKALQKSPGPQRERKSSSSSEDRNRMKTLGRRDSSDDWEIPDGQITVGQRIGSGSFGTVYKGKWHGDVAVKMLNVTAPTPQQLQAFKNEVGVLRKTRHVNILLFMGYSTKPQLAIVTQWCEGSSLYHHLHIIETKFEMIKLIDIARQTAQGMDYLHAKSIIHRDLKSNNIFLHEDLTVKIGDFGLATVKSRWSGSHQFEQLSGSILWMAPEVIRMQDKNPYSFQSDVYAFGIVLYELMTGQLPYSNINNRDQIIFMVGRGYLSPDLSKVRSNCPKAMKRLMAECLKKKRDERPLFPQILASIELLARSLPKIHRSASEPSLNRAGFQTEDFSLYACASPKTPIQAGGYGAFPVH

percent reduction of binding against Sprouty2 expressed without MEK:EE [1]: 40%
Molecule: Recombinant human wild-type GST-B-Raf catalytic domain (domain or fragment)

fold change of B-Raf binding against wild-type Sprouty2 (Myc-B-Raf wild-type): ~2 fold
B1: FLAG-Sprouty2 2A (S111 and S120 to alanines) (natural protein, mouse, UniProt Q9QXV8 1-315, looked up)
chain: MEARAQSGNGSQPLLQTAHDSGRQRGEPDPRDALTQQVHVLSLDQIRAIRNTNEYTEGPTVVPRPGLKPAPRPSTQHKHERLHGLPEHRQPPRLQPSQVHSSRAPLSRSIATVSSGSRSATRTSTSSSSSEQRLLGPSFSHGPAAADGIIRVQPKSELKPGDVKPLSKDDLGLHAYRCEDCGKCKCKECTYPRPLPSDWICDKQCLCSAQNVIDYGTCVCCVKGLFYHCSNDDEDNCADNPCSCSQSHCCTRWSAMGVMSLFLPCLWCYLPAKGCLKLCQGCYDRVNRPGCRCKNSNTVCCKVPTVPPRNFEKPT

fold change of B-Raf binding against wild-type Sprouty2 (Myc-B-Raf wild-type): ~3.5 fold
B2: FLAG-Sprouty2 6A (all six serine sites to alanines) (natural protein, mouse, UniProt Q9QXV8 1-315, looked up)
chain: B1 chain with S7A, S42A, S140A, S167A
